According to article PMC3529520:

Experiments:
[1] = target: YFP-tagged murine Syx S806A (mouse) (UniProt Q66T02); experiment: co-IP
Mupp1 = Mupp1 (UniProt O75970); experiment: co-IP with anti-GFP, Mupp1 blot; settings: reference: wild-type YFP-Syx; sites S806

Sequence of UniProt Q66T02 (Q66T02 whole entry S806A): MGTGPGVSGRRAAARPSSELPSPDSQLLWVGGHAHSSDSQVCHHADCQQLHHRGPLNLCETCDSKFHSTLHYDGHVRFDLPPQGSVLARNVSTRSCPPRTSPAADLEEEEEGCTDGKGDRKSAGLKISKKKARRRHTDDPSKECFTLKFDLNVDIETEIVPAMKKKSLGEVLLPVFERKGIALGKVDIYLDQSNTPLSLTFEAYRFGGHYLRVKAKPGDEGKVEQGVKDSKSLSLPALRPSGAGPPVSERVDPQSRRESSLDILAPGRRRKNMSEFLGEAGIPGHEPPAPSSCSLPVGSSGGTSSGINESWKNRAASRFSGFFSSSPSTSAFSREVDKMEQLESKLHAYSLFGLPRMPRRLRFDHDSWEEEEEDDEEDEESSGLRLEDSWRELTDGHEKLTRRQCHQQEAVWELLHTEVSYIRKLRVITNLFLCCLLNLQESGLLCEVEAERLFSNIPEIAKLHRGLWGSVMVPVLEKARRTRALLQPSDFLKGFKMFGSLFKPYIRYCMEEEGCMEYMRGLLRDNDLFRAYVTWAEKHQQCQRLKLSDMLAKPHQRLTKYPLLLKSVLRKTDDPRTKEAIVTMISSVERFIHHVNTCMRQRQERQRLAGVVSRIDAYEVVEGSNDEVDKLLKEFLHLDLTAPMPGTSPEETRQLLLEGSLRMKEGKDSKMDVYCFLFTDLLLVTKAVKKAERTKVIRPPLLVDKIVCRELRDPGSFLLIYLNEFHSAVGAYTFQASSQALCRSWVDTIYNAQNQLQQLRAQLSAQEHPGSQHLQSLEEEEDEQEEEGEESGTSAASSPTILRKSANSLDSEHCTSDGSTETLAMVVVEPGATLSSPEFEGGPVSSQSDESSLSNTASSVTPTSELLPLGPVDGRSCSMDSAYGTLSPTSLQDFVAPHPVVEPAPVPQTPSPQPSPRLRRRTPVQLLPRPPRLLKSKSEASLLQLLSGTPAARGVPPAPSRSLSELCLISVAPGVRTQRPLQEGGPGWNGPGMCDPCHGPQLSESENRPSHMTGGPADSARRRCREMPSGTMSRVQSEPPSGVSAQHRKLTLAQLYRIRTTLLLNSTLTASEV

Substance	amount of Mupp1 coimmunoprecipitated, fold of that with YFP-Syx [1] [fold]	fold change (Mupp1)
Mupp1 (multiple PDZ domain protein 1), O75970 1-2070	2	–
Syx (murine, YFP-mSyx) (from UniProt Q66T02) YFP-Syx-S806A	–	stronger
